This is an account of results in the supplement of paper PMC9170038.

The subject of the data set is MS2 coat protein. As to the kind of experiment: apparent KD of MS2 coat protein; designed switch direction (-1 OFF switch, 1 ON switch): -1; higher = weaker reporter binding. An outline of the steps:
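For each design, the apparent KD is the median over clusters of curves fitted to normalised cluster fluorescence. Clusters held RNA switches with common flanks, transcribed on Illumina chips by stalled E. coli RNA polymerase. These were titrated with SNAP-549-labelled MS2 coat protein, doubling from 0.7 or 1.5 nM to 3 µM, without input, with 200 uM small-molecule ligand, or with an oligonucleotide input.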

The mark [1] stands for this setting: input ligand: microRNA oligo, concentration not stated.

Take “GAUUGACAUGAGGAUCACCCAUGUGAGGAUAUCGGCUGGUACGUGUUGGCUUGCCUCUCGAGAAGGCGCAUAGG [Exclusion 1 V55] (puzzle: Exclusion 1)”: the “apparent KD of MS2 coat protein” value (Eterna round: R95, input ligand: FMN 200 uM) came out at 140 nM; the “apparent KD of MS2 coat protein” value (Eterna round: R95, input ligand: microRNA oligo, concentration not stated) amounted to 38.5 nM; the “apparent KD of MS2 coat protein” value (Eterna round: R95, input ligand: none) was 63.1 nM.

On to “GAUUGAGAGCAGGAUAUAUUCCUGAUGUAUGAAGUAGAAGGGCUCACAUGAGGAUCACCCAUGUGAUCCUGAAU [JL Dibri mod 17 mod] (Eterna round: R97, puzzle: Exclusion 6)”, for which the “apparent KD of MS2 coat protein” value is, setting by setting: (input ligand: FMN 200 uM) 15.3 nM; (input ligand: none) 14.3 nM.

On to “GCAACGCUGAAAGGAUAUGUUGACCGAGAGACAACAGAAGGUUCCGCACAUGAGGAUCACCCAUGUGAUCGUAAAAGAGCAAGC [Eternabot solution 18] (Eterna round: R96, puzzle: Exclusion NG 1)”, for which the “apparent KD of MS2 coat protein” value by setting is: (input ligand: FMN 200 uM) 99.5 nM; under setting [1], 35.9 nM; (input ligand: none) 48.1 nM.

As for “GCAAGCUUAAUCACUAUGAACAUGAGGAUCACCCAUGUAUAAGGUAAUACUUUUGGGCCCUUUAUUACUCGUCUUAU [JR_STOV1_Sub030] (Eterna round: R97, puzzle: Sensor, turn-off variant 1)”, the “apparent KD of MS2 coat protein” value came out at 61.3 nM (input ligand: FMN 200 uM) and 80.3 nM (input ligand: none).

For “GCAAGCUUAAUCUGUAUGAACAUGAGGAUCACCCAUGUAUAAGGUAAUUCUUUUGGGUUUUUUAUUGCUCGUCUUAU [JR_STOV1_Sub025] (Eterna round: R97, puzzle: Sensor, turn-off variant 1)”, the “apparent KD of MS2 coat protein” value was 189 nM (input ligand: FMN 200 uM) and 210 nM (input ligand: none).

As to “GCAAGCUUUAUCACUAUGAACAUGAGGAUCACCCAUGUAUAAGGUAUUACUUUUGGGCCCUUUAGUGCUCGUCUUAU [JR_STOV1_Sub032] (Eterna round: R97, puzzle: Sensor, turn-off variant 1)”, the “apparent KD of MS2 coat protein” value (input ligand: FMN 200 uM) was found to be 29.8 nM and the “apparent KD of MS2 coat protein” value (input ligand: none) is 29.3 nM.

“GCAAGCUUUUUCAAUAAGAACAUGAGGAUCACCCAUGUUUAAGGUAUUACUUUUGGGCUCUUUAGUGCUCGUCUUAU [JR_STOV1_Sub035] (Eterna round: R97, puzzle: Sensor, turn-off variant 1)”: the “apparent KD of MS2 coat protein” value (input ligand: FMN 200 uM) is 17.9 nM and the “apparent KD of MS2 coat protein” value (input ligand: none) came to 18.2 nM.

As for “GCACAGGCAGGAUAUACAUGAGGAUCACCCAUGUGAUCCCUUAGGUACAAAAGUACUAGUAGAAGGGCCUGUGC [Omei Ex3 Model Bachelor's Dilema v49] (Eterna round: R97, puzzle: Exclusion 3)”, the “apparent KD of MS2 coat protein” value reads like this: (input ligand: FMN 200 uM) 403 nM; (input ligand: none) 1040 nM.

Take “GCACCACGAGGAUAUACAUGAGGAUCACCCAUGUGAUCAGCAGUCCUCGGACUGCAAUGUAGAAGGCGUGGUGC [E3/1-A1] (Eterna round: R97, puzzle: Exclusion 3)”: the “apparent KD of MS2 coat protein” value by setting is: (input ligand: FMN 200 uM) 24.3 nM; (input ligand: none) 776 nM.

On to “GCACGAAGUGUAGGAUAUCUGUGCGAUUAGCUCAGAGAAGGACACAUGAGGAUCACCCAUGUUUUCCGCGGAAGCAAUACGUGC [Eli exng1 - 058] (Eterna round: R96, puzzle: Exclusion NG 1)”, for which the “apparent KD of MS2 coat protein” value (input ligand: FMN 200 uM) came out at 26.5 nM, the “apparent KD of MS2 coat protein” value under setting [1] turned out to be 13.2 nM and the “apparent KD of MS2 coat protein” value (input ligand: none) was determined as 17.9 nM.

On to “GCACGGAGUGUAGGAUAUCUGUGCGAUUAGCUCAGAGAAGGACACAUGAGGAUCACCCAUGUGUAACUCAAUACUCAUCCGUGC [Eli exng1 - 070] (Eterna round: R96, puzzle: Exclusion NG 1)”, for which the “apparent KD of MS2 coat protein” value runs as follows: (input ligand: FMN 200 uM) 8.06 nM; under setting [1], 9.18 nM; (input ligand: none) 13.9 nM.

For the sequence “GCACGGAGUGUAGGAUAUCUGUGCGAUUAGCUCAGAGAAGGACACAUGAGGAUCACCCAUGUGUAUCAACACAAUAAUCCGUGC [Eli exng1 - 071] (Eterna round: R96, puzzle: Exclusion NG 1)”, the “apparent KD of MS2 coat protein” value (input ligand: FMN 200 uM) was found to be 14.8 nM, the “apparent KD of MS2 coat protein” value under setting [1] worked out at 13.1 nM and the “apparent KD of MS2 coat protein” value (input ligand: none) is 14.5 nM.

“GCACGGAGUGUAGGAUAUUAGUGCGAUUAGCACUGAGAAGGACAUGAGGAUCACCCAUGUGCUACCUCAAUUAGCCUUCCGUGC [Eli exng1 - 035] (Eterna round: R96, puzzle: Exclusion NG 1)”: the “apparent KD of MS2 coat protein” value runs as follows: (input ligand: FMN 200 uM) 21.8 nM; under setting [1], 16.5 nM; (input ligand: none) 19.7 nM.

Take “GCACGGAGUGUAGGAUAUUAGUGCGAUUAGCACUGAGAAGGACAUGAGGAUCACCCAUGUUCCUCAAUAACUCACCUUCCGUGC [Eli exng1 - 043] (Eterna round: R96, puzzle: Exclusion NG 1)”: the “apparent KD of MS2 coat protein” value by setting is: (input ligand: FMN 200 uM) 9.73 nM; under setting [1], 10.6 nM; (input ligand: none) 11.5 nM.

For “GCACGGUGAGGAUAUAUAAAUGGGCAUGUCGAGAACCGUUCACAUGAGGAUCACCCAUGUAGAAGGCGCCUGUG [Eternabot (L2) Solution 58] (Eterna round: R97, puzzle: Exclusion 2)”, the “apparent KD of MS2 coat protein” value by setting is: (input ligand: FMN 200 uM) 115 nM; (input ligand: none) 49 nM.

As for “GCACGGUUGGUAGGAUAUCAUUGCGAUUAGCUAUGAGAAGGACCACAUGAGGAUCACCCAUGUCCUCUAAUUAGCCUGCCGUGC [Eli exng1 - 014] (Eterna round: R96, puzzle: Exclusion NG 1)”, under setting [1], the “apparent KD of MS2 coat protein” value was found to be 118 nM.

With “GCAGAUCACGUGAGGAUAUCGUCUACCUCGGUAGUCGAGAAGGCACAUGAGGAUCACCCAUGUGAGUGAUCUGC [Omei Ex4B B2] (Eterna round: R97, puzzle: Brourd's mod of Exclusion 4)”, the “apparent KD of MS2 coat protein” value is 13.6 nM (input ligand: FMN 200 uM) and 17.6 nM (input ligand: none).

Take “GCAGCAAUCUCAAUUAAAACCACAUGAGGAUCACCCAUGUCUCAGGAUAUGGUCUGGAUUACAGGCCAGAAGGGAGAAAGCUGC [Eli exng3 - 053] (Eterna round: R96, puzzle: Exclusion NG 3)”: the “apparent KD of MS2 coat protein” value reads like this: (input ligand: FMN 200 uM) 13.5 nM; under setting [1], 10.2 nM; (input ligand: none) 13 nM.

In the case of “GCAGCACAUGUAGGAUAUCUGCACGUGUAGUGCAGAGAAGGACAUGAGGAUCACCCAUGUAAUUAAGAUCAAUUAUUAAGCUGC [ENG1/3-C3] (Eterna round: R96, puzzle: Exclusion NG 1)”, the “apparent KD of MS2 coat protein” value was 519 nM (input ligand: FMN 200 uM), 42.4 nM under setting [1] and 49.1 nM (input ligand: none).

Consider “GCAGCAUAGAUGAAAAUCUGAUACAUGAGGAUCACCCAUGUACAGGAUAUGGUCUGGAUUACAGGCCAGAAGGGUACAAGCUGC [Eli exng3 - 012] (Eterna round: R96, puzzle: Exclusion NG 3)”, for which the “apparent KD of MS2 coat protein” value reads like this: (input ligand: FMN 200 uM) 15.7 nM; under setting [1], 10.4 nM; (input ligand: none) 12.1 nM.

As to “GCAGCAUAGUCCAAAUAGGACAUACAUGAGGAUCACCCAUGUCAGGAUAUGGUCUGGAUUACAGGCCAGAAGGGACAAAGCUGC [Eli exng3 - 001] (Eterna round: R96, puzzle: Exclusion NG 3)”, the “apparent KD of MS2 coat protein” value runs as follows: (input ligand: FMN 200 uM) 30.4 nM; under setting [1], 22.3 nM; (input ligand: none) 27.9 nM.
